Publication PMC2814116

Molecular target: Phaseolus coccineus PCNA1 (PcPCNA1), recombinant (Phaseolus coccineus)
Assay: SEC

## Phaseolus coccineus PCNA1 (PcPCNA1), recombinant (natural protein)
  stoichiometry N: 3
